The source of these data is patent publication EP4722245A1, “ANTIBODY TARGETING ITGA2, ANTIBODY DRUG CONJUGATE THEREOF, AND USE” (Foreseen Technology (Beijing) Co., Ltd., priority 2023, dated 2024).

What is called EC50 is the concentration that produces a half-maximal response. Read a high EC50 as a need for much substance.

The target in assay [1] is T1, ITGA2 protein on the surface of human tumor cells (human, UniProt P17301 30-1181).
T1 sequence (looked up): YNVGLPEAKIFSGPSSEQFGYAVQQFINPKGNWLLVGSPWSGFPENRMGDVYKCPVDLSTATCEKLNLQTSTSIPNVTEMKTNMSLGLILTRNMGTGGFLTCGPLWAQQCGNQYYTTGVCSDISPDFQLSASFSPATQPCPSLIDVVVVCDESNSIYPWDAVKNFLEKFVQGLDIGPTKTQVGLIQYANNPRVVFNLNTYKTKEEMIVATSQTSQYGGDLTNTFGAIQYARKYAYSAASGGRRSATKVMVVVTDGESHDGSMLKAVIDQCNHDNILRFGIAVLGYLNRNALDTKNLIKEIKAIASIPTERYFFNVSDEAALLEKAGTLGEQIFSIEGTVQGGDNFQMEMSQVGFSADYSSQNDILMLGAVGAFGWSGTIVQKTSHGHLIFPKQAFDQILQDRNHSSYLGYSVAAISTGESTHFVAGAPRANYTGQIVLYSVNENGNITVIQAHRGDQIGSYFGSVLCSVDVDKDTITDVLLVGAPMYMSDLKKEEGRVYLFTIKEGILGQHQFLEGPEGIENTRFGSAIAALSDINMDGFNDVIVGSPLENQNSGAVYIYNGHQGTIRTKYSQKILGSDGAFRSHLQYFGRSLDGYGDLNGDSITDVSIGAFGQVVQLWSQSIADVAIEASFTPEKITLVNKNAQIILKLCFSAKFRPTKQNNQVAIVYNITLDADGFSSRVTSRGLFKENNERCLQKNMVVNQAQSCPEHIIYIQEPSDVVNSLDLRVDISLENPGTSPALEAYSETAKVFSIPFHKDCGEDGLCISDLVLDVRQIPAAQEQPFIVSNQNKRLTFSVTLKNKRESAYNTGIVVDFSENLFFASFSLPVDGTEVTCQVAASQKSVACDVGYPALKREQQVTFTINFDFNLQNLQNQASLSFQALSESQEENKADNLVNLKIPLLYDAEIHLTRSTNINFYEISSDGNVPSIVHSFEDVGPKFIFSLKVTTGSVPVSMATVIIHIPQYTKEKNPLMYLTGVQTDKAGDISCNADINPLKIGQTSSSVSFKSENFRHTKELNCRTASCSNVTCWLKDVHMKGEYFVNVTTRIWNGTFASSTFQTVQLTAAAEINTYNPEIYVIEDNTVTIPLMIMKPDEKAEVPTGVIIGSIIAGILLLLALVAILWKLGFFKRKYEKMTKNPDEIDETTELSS
In words: cell-based or functional assay.

The target in assay [2] is T1, ITGA2 protein on the surface of human …. The assay can be described thus: flow cytometry on HuCCT1 cells.
Assay [3] concerns the target T2, ITGA2-His (UniProt P17301 30-1132, limits assumed).
T2 construct: Coated on the ELISA plate at 2 ug/mL; whole entry P17301 is named; also called ITGA2 protein; not shown: His tag
T2 sequence (looked up): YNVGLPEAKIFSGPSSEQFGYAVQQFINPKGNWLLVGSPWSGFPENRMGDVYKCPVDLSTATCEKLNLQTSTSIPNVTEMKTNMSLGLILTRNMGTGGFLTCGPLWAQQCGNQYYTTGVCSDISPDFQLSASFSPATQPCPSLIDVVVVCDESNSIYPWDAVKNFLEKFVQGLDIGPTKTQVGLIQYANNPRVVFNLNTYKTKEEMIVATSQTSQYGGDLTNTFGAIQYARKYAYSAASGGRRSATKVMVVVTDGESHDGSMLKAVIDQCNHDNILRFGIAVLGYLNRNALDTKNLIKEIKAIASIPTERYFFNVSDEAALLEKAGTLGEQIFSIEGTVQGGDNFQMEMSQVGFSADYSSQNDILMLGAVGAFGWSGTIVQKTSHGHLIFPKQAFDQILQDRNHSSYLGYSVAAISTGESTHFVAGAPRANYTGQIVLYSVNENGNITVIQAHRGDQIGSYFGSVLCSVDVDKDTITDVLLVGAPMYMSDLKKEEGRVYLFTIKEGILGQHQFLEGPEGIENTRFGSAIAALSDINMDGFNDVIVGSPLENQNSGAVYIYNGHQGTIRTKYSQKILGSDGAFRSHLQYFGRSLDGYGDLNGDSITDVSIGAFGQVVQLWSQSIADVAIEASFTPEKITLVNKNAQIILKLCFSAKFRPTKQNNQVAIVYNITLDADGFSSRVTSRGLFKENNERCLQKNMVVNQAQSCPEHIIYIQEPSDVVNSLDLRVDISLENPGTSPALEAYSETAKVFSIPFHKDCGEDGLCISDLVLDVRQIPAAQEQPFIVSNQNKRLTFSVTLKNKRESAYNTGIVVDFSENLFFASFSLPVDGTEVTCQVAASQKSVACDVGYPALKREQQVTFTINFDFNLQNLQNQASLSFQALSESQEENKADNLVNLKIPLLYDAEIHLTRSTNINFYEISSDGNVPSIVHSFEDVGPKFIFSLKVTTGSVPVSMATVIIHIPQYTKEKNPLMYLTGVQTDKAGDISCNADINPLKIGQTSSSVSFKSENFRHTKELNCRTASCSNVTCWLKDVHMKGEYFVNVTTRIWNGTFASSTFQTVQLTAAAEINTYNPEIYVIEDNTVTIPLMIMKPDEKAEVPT
The assay can be described thus: ELISA, plate coated with 2 ug/mL ITGA2-His, anti-human IgG-Fc-HRP detection.

B1: FS002-A226-H3L4-vcMMAE (antibody, human IgG1, kappa, V domains shown)
VH: QLQLVQSGAEVKKPGASVKVSCKASGYTFTDYEIHWVRQAPGQGLEWIGAIDPETGGTNYNQKFNDRVTLTADTSISTAYMELSRLRSDDTAVYYCSRSGYYVSNYESYAMDYWGQGTTVTVSS
VL: DIQLTQSPSSLSASVGDRVTITCRASQDIKSYLSWYQQKPGKAPKLLIYDTSNLASGVPSRFSGSGSGTDFTLTISSLQPEDFATYYCQQWSSYPFTFGGGTKLEIKR
modifications: vc-MMAE, attachment residues not stated; vc-MMAE (mc-vc-PAB-MMAE) conjugated after TCEP reduction, DAR 3.8 per antibody; attachment residues not stated
Turning to B1, in assay [1], the “A431 cell killing IC50” value was 0.063 nM.

B2: Chimeric mouse antibody FS002-A208 (antibody, human IgG1, kappa, V domains shown)
VH: QVQLQQSGAELVRPGASVTLSCKASGYTFTDYEIHWVKQTPVHGLEWIGAIDPETGGTNYNQKFNDKATLTADKSSSTAYMDLRSLTSEDSAVYYCSRSGYYVSNYESYAMDYWGQGTSVTVSS
VL: DIVMTQSQKFMSTSVGDRVSVTCKASQNVGTNVAWYQQKPGQSPKTLIYSASYRFSGVPDRFTGSGSGTDFTLTINNVQSEDLADYFCQQYNIYPLSFGAGTKLELKR
notes: Chimeric
For B2, the figures for the EC50 in assay [2] and in assay [3] were 0.76 nM and 0.02 nM, respectively.

B3: Chimeric mouse antibody FS002-A226 (antibody, human IgG1, kappa, V domains shown)
VH: QLQLQQSGAELVRPGASVTLSCKASGYTFTDYEIHWVKQTPVHGLEWIGAIDPETGGTNYNQKFNDKATLTADKSSSTAYMDLRSLTSEDSAVYYCSRSGYYVSNYESYAMDYWGQGTSVTVSS
VL: DIKITQSPSSMYASLGERVTITCKASQDIKSYLSWYQQKPGSSPRLLIYDTSNLASGVPVRFSGRGSGTSYSLTISRMEAEDAATYYCQQWSSYPFTFGSGTKLEIKR
notes: Chimeric
With B3, the EC50 was found to be 0.58 nM in assay [2] and 0.018 nM in assay [3].

B4: FS002-A153-H5L5-vcMMAE (antibody, human IgG1, kappa, V domains shown)
VH: QVQLVQSGAEVKKPGASVKVSCKASGYTFTDYEMHWVRQAPGQGLEWMGTIDPETGGTTYAQKFQGRVTMTADTSISTAYMELSRLRSDDTAVYYCARSGYYVSSYESYAMDYWGQGTTVTVSS
VL: EIVMTQSPPTLSLSPGERVTMSCRSSQSLLNSGNQKNYLTWYQQKPGQAPRLLIYGASTRESGVPARFSGSGSGTDFTLTISSLQPEDFAVYYCQNDYSYPFTFGGGTKLEIKR
modifications: vc-MMAE, attachment residues not stated; vc-MMAE (mc-vc-PAB-MMAE) conjugated after TCEP reduction, DAR 4.0 per antibody; attachment residues not stated
Regarding B4, the “A431 cell killing IC50” value in assay [1] came out at 0.073 nM.

B5: FS002-A226-H5L4-vcMMAE (antibody, human IgG1, kappa, V domains shown)
VH: QVQLVQSGAEVKKPGASVKVSCKASGYTFTDYEIHWVRQAPGQGLEWMGAIDPETGGTNYAQKFQGRVTMTADTSISTAYMELSRLRSDDTAVYYCSRSGYYVSNYESYAMDYWGQGTTVTVSS
VL: DIQLTQSPSSLSASVGDRVTITCRASQDIKSYLSWYQQKPGKAPKLLIYDTSNLASGVPSRFSGSGSGTDFTLTISSLQPEDFATYYCQQWSSYPFTFGGGTKLEIKR
modifications: vc-MMAE, attachment residues not stated; vc-MMAE (mc-vc-PAB-MMAE) conjugated after TCEP reduction, DAR 3.8 per antibody; attachment residues not stated
As for B5, the “A431 cell killing IC50” value in assay [1] amounted to 0.049 nM.

B6: FS002-A103-H4L2-vcMMAE (antibody, human IgG1, kappa, V domains shown)
VH: QVQLVQSGAEVKKPGASVKVSCKASGYTFTDYEMHWVRQAPGQGLEWMGVIDPETGGTTYNQKFQGRVTLTADTSISTAYMELSRLRSDDTAVYYCSRSGYYVSSYESYAMDYWGQGTTVTVSS
VL: EIVMTQSPKTMSMSPGERVTLSCKASENVGTYVSWYQQKPGQAPRLLIYGASTRESGVPDRFSGSGSGTDFTLTISSLQPEDFAVYYCQNDYSYPFTFGGGTKLEIKR
modifications: vc-MMAE, attachment residues not stated; vc-MMAE (mc-vc-PAB-MMAE) conjugated after TCEP reduction, DAR 3.5 per antibody; attachment residues not stated
On to B6, for which the “A431 cell killing IC50” value in assay [1] was 0.061 nM.

B7: FS002-A208-H4L4-vcMMAE (antibody, human IgG1, kappa, V domains shown)
VH: QVQLVQSGAEVKKPGASVKVSCKASGYTFTDYEIHWVRQAPGQGLEWIGAIDPETGGTNYNQKFQGRVTLTADTSISTAYMELSRLRSDDTAVYYCSRSGYYVSNYESYAMDYWGQGTTVTVSS
VL: DIQMTQSPSSLSASVGDRVTITCRASQNVGTNVAWYQQKPEKAPKSLIYSASYRFSGVPSRFSGSGSGTDFTLTISSLQPEDFATYYCQQYNIYPLSFGGGTKLELKR
modifications: vc-MMAE, attachment residues not stated; vc-MMAE (mc-vc-PAB-MMAE) conjugated after TCEP reduction, DAR 4.1 per antibody; attachment residues not stated
Turning to B7, the “A431 cell killing IC50” value in assay [1] stood at 0.051 nM.

B8: Humanized antibody FS002-A103-H4L3 (antibody, human IgG1, kappa, V domains shown)
VH: QVQLVQSGAEVKKPGASVKVSCKASGYTFTDYEMHWVRQAPGQGLEWMGVIDPETGGTTYNQKFQGRVTLTADTSISTAYMELSRLRSDDTAVYYCSRSGYYVSSYESYAMDYWGQGTTVTVSS
VL: EIVMTQSPPTMSMSPGERVTLSCKASENVGTYVSWYQQKPGQAPRLLIYGASTRESGVPARFSGSGSGTDFTLTISSLQPEDFAVYYCQNDYSYPFTFGGGTKLEIKR
notes: Humanized IgG1 kappa
Turning to B8, the EC50 came out at 0.08 nM in assay [2] and 0.006 nM in assay [3].

B9: FS002-A208-H5L4-vcMMAE (antibody, human IgG1, kappa, V domains shown)
VH: QVQLVQSGAEVKKPGASVKVSCKASGYTFTDYEIHWVRQAPGQGLEWMGAIDPETGGTNYAQKFQGRVTMTADTSISTAYMELSRLRSDDTAVYYCSRSGYYVSNYESYAMDYWGQGTTVTVSS
VL: DIQMTQSPSSLSASVGDRVTITCRASQNVGTNVAWYQQKPEKAPKSLIYSASYRFSGVPSRFSGSGSGTDFTLTISSLQPEDFATYYCQQYNIYPLSFGGGTKLELKR
modifications: vc-MMAE, attachment residues not stated; vc-MMAE (mc-vc-PAB-MMAE) conjugated after TCEP reduction, DAR 4.0 per antibody; attachment residues not stated
B9: the “A431 cell killing IC50” value in assay [1] was 0.083 nM.

B10: Humanized antibody FS002-A103-H4L2 (antibody, human IgG1, kappa, V domains shown)
VH: QVQLVQSGAEVKKPGASVKVSCKASGYTFTDYEMHWVRQAPGQGLEWMGVIDPETGGTTYNQKFQGRVTLTADTSISTAYMELSRLRSDDTAVYYCSRSGYYVSSYESYAMDYWGQGTTVTVSS
VL: EIVMTQSPKTMSMSPGERVTLSCKASENVGTYVSWYQQKPGQAPRLLIYGASTRESGVPDRFSGSGSGTDFTLTISSLQPEDFAVYYCQNDYSYPFTFGGGTKLEIKR
notes: Humanized IgG1 kappa
For B10, the values for the EC50 in assay [2] and in assay [3] were 0.127 nM and 0.006 nM, respectively.

B11: Humanized antibody FS002-A103-H4L4 (antibody, human IgG1, kappa, V domains shown)
VH: QVQLVQSGAEVKKPGASVKVSCKASGYTFTDYEMHWVRQAPGQGLEWMGVIDPETGGTTYNQKFQGRVTLTADTSISTAYMELSRLRSDDTAVYYCSRSGYYVSSYESYAMDYWGQGTTVTVSS
VL: EIVMTQSPPTLSLSPGERVTLSCRASENVGTYVSWYQQKPGQAPRLLIYGASTRESGIPARFSGSGSGTDFTLTISSLQPEDFAVYYCQNDYSYPFTFGGGTKLEIKR
notes: Humanized IgG1 kappa
For B11, the values for the EC50 in assay [2] and in assay [3] were 0.3 nM and 0.01 nM, respectively.

B12: Vatelizumab (antibody, V domains shown)
VH: QVQLQESGPGLVKPSETLSLTCTVSGFSLTNYGIHWIRQPPGKGLEWLGVIWARGFTNYNSALMSRLTISKDNSKNQVSLKLSSVTAADTAVYYCARANDGVYYAMDYWGQGTLVTVSS
VL: DFVMTQSPAFLSVTPGEKVTITCSAQSSVNYIHWYQQKPDQAPKKLIYDTSKLASGVPSRFSGSGSGTDYTFTISSLEAEDAATYYCQQWTTNPLTFGQGTKVEIK
Turning to B12, the EC50 in assay [2] amounted to 0.78 nM; in assay [3], 0.008 nM.
